Molecular target: Dictyostelium myosin II (bipolar filaments) (Dictyostelium discoideum) (UniProt P08799)

phosphorylation of MHC in a kinase assay (50 nM kinase, 1.0 μM myosin II), against the full-length kinase (% of the full-length kinase): 30
B1: GST-B-Δ-WD, MHCK-B truncation lacking only the WD-repeat domain (amino acids 1-450) (domain or fragment)
chain: MIFKVWFSYEDEEVELSELTNDTTVSAIRKILHEGKIFRFPYGTSQTDLQIGKMLPSGSGGGATADSKFEKFKARNTLADIQYKVGDTLYVRVKKSKPTNDSLLPTLNIAFLDGSERAIKWEYDPYTTTAQWTCTATLVKVEPVPFAEGAFRKAYHTLDLSKSGASGRYVSKIGKKPTPRPSYFEDVKMQMIAKKWADKYNSFKPPKKIEFLQSCVLEFVDRTSSDLICGAEPYVEGQYRKYNNNSGFVSNDERNTPQSFSHFTYEHSNHQLLIIDIQGVGDHYTDPQIHTYDGVGFGIGNLGQKGFEKFLDTHKCNAICQYLNLQSINPKSEKSDCGTVPRPDLIFPDTSERDNNNNNNNNNNNNNNNNNNNSNNNNNNNSSISKSLVEISSGSKERNDRDSPSRQLFVSNDGNTLNTNKERSKSKSIDLEKPEILINNKKKESINLET
